Measured values: patent US20170305994A1 (Novo Nordisk, published 2017)

Tests used:
[1] = target: T1, DR3 (CRD1)-Fc (human); experiment: SPR Biacore T200, DR3(CRD1)-Fc captured by anti-human IgG, Fab as analyte, 25 C, 1:1 model, mean of 3 surface densities
T1 construct: Amino acids 25-71 of DR3 fused to the Fc domain of human IgG4; purified to exclude oligomers (mainly dimeric)
Description: The experiments were performed on a Biacore T200 instrument (GE Healthcare) and analysed with the Biacore T200 Evaluation Software. Anti human IgG antibodies (human IgG capture kit from GE Healthcare) were immobilized on all flow cells of a CM5 sensor chip according to manufacturer's instructions. HBS-EP (GE Healthcare) with 0.1% human serum albumin was used as running buffer. DR3(CRD1)-Fc (SEQ ID NO:2) was captured on the chip at low surface densities between 14 and 45 RU. Fab fragments were diluted to concentrations between 90 and 0.037 nM and subsequently injected for 360 s. […] Binding curves were measured at 25° C. with a flow rate between 30 and 60 μL/min.
Regeneration was performed with 3 M […] for 2×20 s. The raw data were double referenced by subtraction of the signals from a reference flow cell without captured ligand and a buffer blank. Determination of the kinetic parameters was performed by fitting with a 1:1 binding model using the Biacore T200 Evaluation Software (GE Healthcare). Average values obtained from 3 different surface densities of DR3(CRD1)-Fc (SEQ ID NO:2) were calculated and are stated in table 14

[2] = target: T2, human DR3 (full length, on cells) (human, UniProt Q93038 25-417); experiment: cell-based or functional assay
T2 sequence: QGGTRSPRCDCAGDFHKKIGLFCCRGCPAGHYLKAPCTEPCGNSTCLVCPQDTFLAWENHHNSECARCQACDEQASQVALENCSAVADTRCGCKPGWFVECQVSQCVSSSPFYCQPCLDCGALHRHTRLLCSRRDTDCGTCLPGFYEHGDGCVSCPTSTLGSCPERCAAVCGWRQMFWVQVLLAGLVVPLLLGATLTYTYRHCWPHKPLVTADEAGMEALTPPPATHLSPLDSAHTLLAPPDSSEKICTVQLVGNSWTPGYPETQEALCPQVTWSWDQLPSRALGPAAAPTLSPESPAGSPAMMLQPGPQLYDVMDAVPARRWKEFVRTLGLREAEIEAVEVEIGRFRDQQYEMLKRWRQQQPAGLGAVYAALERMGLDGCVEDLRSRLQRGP

[3] = target: T3, human DR3 with the death domain deleted (ΔM339-P417 of SEQ ID NO:1), expressed on CHOK1SV cells (human, UniProt Q93038 25-338); experiment: flow cytometry competition: Fab vs TL1A on hDR3-expressing CHO cells
T3 construct: also called truncated DR3; hDR3 expressing CHO cells
T3 sequence: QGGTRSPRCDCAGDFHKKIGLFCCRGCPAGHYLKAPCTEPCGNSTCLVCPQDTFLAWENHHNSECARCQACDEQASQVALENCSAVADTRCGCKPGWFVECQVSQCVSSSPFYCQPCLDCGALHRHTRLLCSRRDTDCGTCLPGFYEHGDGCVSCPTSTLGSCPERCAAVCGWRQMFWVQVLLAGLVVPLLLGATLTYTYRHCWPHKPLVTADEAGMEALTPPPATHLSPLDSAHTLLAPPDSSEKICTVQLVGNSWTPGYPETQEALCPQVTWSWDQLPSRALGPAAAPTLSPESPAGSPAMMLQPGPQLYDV

[4] = target: T2, human DR3 (full length, on cells); experiment: cell-based or functional assay; remark: listed apart in the source
[5] = target: T2, human DR3 (full length, on cells); experiment: cell-based or functional assay; remark: listed apart in the source
[6] = target: T2, human DR3 (full length, on cells); experiment: cell-based or functional assay; remark: listed apart in the source
[7] = target: T2, human DR3 (full length, on cells); experiment: cell-based or functional assay; remark: listed apart in the source

T1 sequence (chain, as listed by the source limits assumed): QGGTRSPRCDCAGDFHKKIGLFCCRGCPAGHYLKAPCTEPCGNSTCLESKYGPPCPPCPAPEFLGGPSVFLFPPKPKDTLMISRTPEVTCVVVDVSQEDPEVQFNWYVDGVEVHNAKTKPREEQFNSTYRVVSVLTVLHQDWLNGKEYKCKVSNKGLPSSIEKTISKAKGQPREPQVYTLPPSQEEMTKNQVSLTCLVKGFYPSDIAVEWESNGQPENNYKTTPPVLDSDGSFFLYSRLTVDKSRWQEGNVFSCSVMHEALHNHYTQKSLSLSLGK

Binder | Kd [1] [nM] | koff [1] [s⁻¹] | kon [1] [M⁻¹ s⁻¹] | IC50 at 40 ng/ml TL1A, I5 reporter cells [2] [nM] | IC50, TNFalpha inhibition, TL1A-activated CD4+ T cells, donor 1 [5] [nM] | IC50, TNFalpha inhibition, TL1A-activated CD4+ T cells, donor 2 [5] [nM] | max % inhibition of TNFalpha, donor 1 [5] [%] | max % inhibition of TNFalpha, donor 2 [5] [%] | IC50 [3] [nM] | max percentage inhibition [3] [%] | also measured
0124 (chimeric Fab of 28F26, human IgG4 constant domain, hinge Cys->Ser) (Fab, V domains shown, murine variable domains, human IgG4 constant domain (IgG4-Ser)) VH: EVKVVESGGGLVKPGGSLKLSCAASGFVFSSYDMSWVRQIPEKRLEWVAAISSGDYYTYYPDSVKGRFTISRDDARNTLYLQMSSLRSEDTALYYCARHRGGNYPQYAMDYWGQGTSVTVSS VL: DILLTQSPASFAVSLGQRATISCRASKSVSTSGYNYIHWYQQKPGQPPKLLIYLTSNLESGVPARFSGSGSGTDFTLNIHPVEEEDAATYYCQHSRELPFTFGSGTKLEIKR | 0.267 | 0.000201 | 752000 | 2.4 | 1.11 | 1.21 | 52.3 | 41.3 | 1.3 | 79 | GM-CSF, fold downregulation, +TL1A + anti DR3 Fab [4]: 7.9 fold; IFNγ, fold downregulation, +TL1A + anti DR3 Fab [4]: 1.1 fold; IL-6, fold downregulation, +TL1A + anti DR3 Fab [4]: 13.3 fold; TNFα, fold downregulation, +TL1A + anti DR3 Fab [4]: 5 fold; IC50, TNFalpha inhibition, average (n 4) [5]: 1.33 nM
0169 (humanized IgG1 Fab of 0072; HC T28A S49A Y91; LC Q3A T5A S60A M4L) (Fab, V domains shown) VH: EVQLVESGGGLVQPGGSLRLSCAASGFTFSNYDMSWVRQAAGKGLEWVSAFSSDGYTFYPGAVKGRFTISRENAKNSLYLQMNSLRAGDTAVYYCARHADYANYPVMDYWGQGTLVTVSS VL: DIALAQSPSSLSASVGDRVTITCRASKSVSTSGYSYMHWYQQKPGKAPKLLIYLASNLEAGVPSRFSGSGSGTDFTLTISSLQPEDFATYYCQHSRELPLTFGGGTKVEIK | – | – | – | – | – | – | – | – | – | – | IFN-γ, TL1A-costimulated lymphocytes, Fab 0.003 µg/mL [6]: 121 ng/mL; IFN-γ, TL1A-costimulated lymphocytes, Fab 0.01 µg/mL [6]: 138 ng/mL; IFN-γ, TL1A-costimulated lymphocytes, Fab 0.03 µg/mL [6]: 81 ng/mL; IFN-γ, TL1A-costimulated lymphocytes, Fab 0.1 µg/mL [6]: 58 ng/mL; IFN-γ, TL1A-costimulated lymphocytes, Fab 0.3 µg/mL [6]: 31 ng/mL; IFN-γ, TL1A-costimulated lymphocytes, Fab 1.0 µg/mL [6]: 55 ng/mL
0122 (chimeric Fab of 27F16, human IgG4 constant domain, hinge Cys->Ser) (Fab, V domains shown, murine variable domains, human IgG4 constant domain (IgG4-Ser), human kappa) VH: EVQLVESGGDFVKPGGSLKLSCAASGFTFNNYGMSWVRQTPDKRLEWVAAISSGVTYTYYPDTVKGRFTISRDNAKNTLYLHMSSLKSEDTAMYYCGRHDDYGNHFDYWGQGTTLTVSS VL: DIVMTQSPSSLAMSLGQRVTMNCKSSQSLLNSHNQKNYLAWYQQKPGQSPKLLVYFASSRESGVPDRFIGSGSGTDFTLTISSVQAEDLADYFCQQHYSTPFTFGSGTKLEIKR | – | – | – | – | – | – | 3.9 | 10 | 5.11 | 33 | –
0118 (chimeric Fab of 27F16, human IgG1 constant domain) (Fab, V domains shown) VH: EVQLVESGGDFVKPGGSLKLSCAASGFTFNNYGMSWVRQTPDKRLEWVAAISSGVTYTYYPDTVKGRFTISRDNAKNTLYLHMSSLKSEDTAMYYCGRHDDYGNHFDYWGQGTTLTVSS VL: DIVMTQSPSSLAMSLGQRVTMNCKSSQSLLNSHNQKNYLAWYQQKPGQSPKLLVYFASSRESGVPDRFIGSGSGTDFTLTISSVQAEDLADYFCQQHYSTPFTFGSGTKLEIKR | – | – | – | – | – | – | – | – | – | – | IFN-γ, TL1A-costimulated lymphocytes, Fab 0.003 µg/mL [6]: 132 ng/mL; IFN-γ, TL1A-costimulated lymphocytes, Fab 0.01 µg/mL [6]: 134 ng/mL; IFN-γ, TL1A-costimulated lymphocytes, Fab 0.03 µg/mL [6]: 158 ng/mL; IFN-γ, TL1A-costimulated lymphocytes, Fab 0.1 µg/mL [6]: 151 ng/mL; IFN-γ, TL1A-costimulated lymphocytes, Fab 0.3 µg/mL [6]: 124 ng/mL; IFN-γ, TL1A-costimulated lymphocytes, Fab 1.0 µg/mL [6]: 132 ng/mL; IFN-γ, TL1A-costimulated RA SF cells, Fab 0.003 µg/mL [7]: 2310 pg/mL; IFN-γ, TL1A-costimulated RA SF cells, Fab 0.01 µg/mL [7]: 2280 pg/mL; IFN-γ, TL1A-costimulated RA SF cells, Fab 0.03 µg/mL [7]: 2080 pg/mL; IFN-γ, TL1A-costimulated RA SF cells, Fab 0.1 µg/mL [7]: 2100 pg/mL; IFN-γ, TL1A-costimulated RA SF cells, Fab 0.3 µg/mL [7]: 2120 pg/mL; IFN-γ, TL1A-costimulated RA SF cells, Fab 1 µg/mL [7]: 2230 pg/mL

Now from value to binder, other results behind:

Kd [1] [nM] | koff [1] [s⁻¹] | kon [1] [M⁻¹ s⁻¹] | IC50 at 40 ng/ml TL1A, I5 reporter cells [2] [nM] | IC50, TNFalpha inhibition, TL1A-activated CD4+ T cells, donor 1 [5] [nM] | IC50, TNFalpha inhibition, TL1A-activated CD4+ T cells, donor 2 [5] [nM] | max % inhibition of TNFalpha, donor 1 [5] [%] | max % inhibition of TNFalpha, donor 2 [5] [%] | Binder | IC50 [3] [nM] | max percentage inhibition [3] [%] | also measured
0.00147 | 5.1e-06 | 3.49e+06 | 0.29 | 0.148 | 0.074 | 76.7 | 66 | 0143 (chimeric Fab of 44F434, human IgG4 constant domain, hinge Cys->Ser) (Fab, V domains shown, IgG4-Ser, chimeric) VH: EVQLVESGGDLVMPGGSLKLSCAASGFIFSSYGLSWIRQTPDKRLEWVATISGGDSYTYYPDSVKGRFTISSDNAKNTLYLQMTSLKSEDTAMYYCATQREIYYGTYYALDHWGQGTSVTVSS VL: DIQMTQTTSSLSASLGDRVTISCRASQDINNYLNWYQQKPDGTVKLLIYYTSRLQSGVPSRFSGSGSGTDYSLTISSLEQDDIATYFCQQGSPLPWTFGGGTKLEIKR | 0.12 | 76 | IC50, TNFalpha inhibition, average (n 5) [5]: 0.125 nM
0.12 | 0.000208 | 1.74e+06 | 1.4 | 0.539 | 1.77 | 84.4 | 78 | 0130 (recombinant murine Fab of 45F36) (Fab, V domains shown, murine Fab; also called 00130) VH: EVQLVESGGGLVKPGGSLKLSCAASGFTFSSYAMSWVRQSPDKRLEWVAEISSGDTYTYYPDTVTGRFTISRDNAKKTLYLEMSGLRSEDTAMYYCARDREAYYGQQYVMDYWGQGTSVTVSS VL: DIVLTQSPASLAVSLGLSVTISCRASESIEYSGTSFLQWYQQKPGQPPRLLIYGSSTVESGVPARFSGSGSGTDFSLNIHPVEEDDSAMYFCQQSRRLPWTFGGGTKLEIKR | 1.34 | 73 | IC50, TNFalpha inhibition, average (n 5) [5]: 0.642 nM
0.00955 | 3.06e-05 | 3.2e+06 | – | – | – | – | – | 0219 (humanized Fab of 27F44, IgG1, S49A HC) (Fab, V domains shown, Human IgG1 constant part) VH: EVQLVESGGGLVQPGGSLRLSCAASGFTFSNYDMSWVRQATGKGLEWVAAFSSDGYTFYPGSVKGRFTISRENAKNSLYLQMNSLRAGDTAVYYCARHADYANYPVMDYWGQGTLVTVSS VL: DIQMTQSPSSLSASVGDRVTITCRASKSVSTSGYSYMHWYQQKPGKAPKLLIYLASNLESGVPSRFSGSGSGTDFTLTISSLQPEDFATYYCQHSRELPLTFGGGTKVEIK | – | – | –
